The data set concerns the molecule itself. Description: SEC; analytical SEC, Superose 12 10/300 GL, 20 mM Tris-base pH 7.5, 150 mM NaCl, 3.8 mM nOG; HpCrdA incubated with EDTA (metal chelated); monomer-dimer equilibrium. For orientation: Size exclusion chromatography separates by hydrodynamic size, large species first.

From paper PMC9182242, “Copper Binding and Oligomerization Studies of the Metal Resistance Determinant CrdA from Helicobacter pylori” (Molecules, 2022) come the findings set out here.

B1: CrdA protein from Helicobacter pylori (HpCrdA) (natural protein)
chain: QTLKANDLEVKIKSVGNPIKGDNTFILSPTLKGKALEKAIVRVQFMMPEMPGMPAMKEMAQVSEKNGLYEAKTNLSMNGTWQVRVDIKSKEGQVYRAKTSLDL
notes: predicted mass of the monomer ~12.4 kDa; Residues of the pGEX-6P-1 linker probably remain after PreScission cleavage (surmised); also called HP1326; apo-HpCrdA; source: E. coli BL21(DE3), purified (GSTrap, GST cleaved with PreScission protease, Superdex 75 SEC); not shown: GST, N-terminal, cleaved
Consider B1, for which the “stoichiometry N” value is 2.

As usually defined, the stoichiometry N is a count of units in the complex or per binding partner.
